System: Escherichia coli TOP10
Experiment: shrunken log2 fold change of peptide-encoding DNA abundance (4.5 h post-induction vs induction); higher = less antimicrobial activity (less host growth inhibition)
Conditions: time post-induction: 4.5 h; library: site-saturation at positions 5, 18, 19, 20
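Also: peptides expressed intracellularly from a pBAD plasmid library in pooled LB shake-flask culture, induced with 0.3% L-arabinose, DNA abundance read by NGS, three biological replicates, DESeq2 with apeglm shrinkage.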

Sequence: RRIRERPPRLPRPRPRPSFYPRP
- shrunken log2 fold change: -0.308

Sequence: RRIRNRPPRLPRPRPRPDRCPRP
- shrunken log2 fold change: -0.0122

Sequence: RRIRARPPRLPRPRPRPLVLPRP
- shrunken log2 fold change: 0.157

Sequence: RRIRCRPPRLPRPRPRPQTLPRP
- shrunken log2 fold change: -0.148

Sequence: RRIRHRPPRLPRPRPRPQDHPRP
- shrunken log2 fold change: -0.215

Sequence: RRIRNRPPRLPRPRPRPYYGPRP
- shrunken log2 fold change: -0.105

Sequence: RRIRERPPRLPRPRPRPICHPRP
- shrunken log2 fold change: -0.187

Sequence: RRIRFRPPRLPRPRPRPEKMPRP
- shrunken log2 fold change: 0.0434

Sequence: RRIRDRPPRLPRPRPRPGAPPRP
- shrunken log2 fold change: 0.598

Sequence: RRIRNRPPRLPRPRPRPEVHPRP
- shrunken log2 fold change: -0.0167

Sequence: RRIRLRPPRLPRPRPRPHLRPRP
- shrunken log2 fold change: -0.151

Sequence: RRIRKRPPRLPRPRPRPSSFPRP
- shrunken log2 fold change: 0.0223

Sequence: RRIRWRPPRLPRPRPRPYSHPRP
- shrunken log2 fold change: -1.09

Sequence: RRIRDRPPRLPRPRPRPDSRPRP
- shrunken log2 fold change: -0.00898

Sequence: RRIRIRPPRLPRPRPRPGLQPRP
- shrunken log2 fold change: 0.0696

Sequence: RRIRDRPPRLPRPRPRPTHMPRP
- shrunken log2 fold change: 0.381

Sequence: RRIRHRPPRLPRPRPRPIWKPRP
- shrunken log2 fold change: -0.0276

Sequence: RRIRKRPPRLPRPRPRPNNVPRP
- shrunken log2 fold change: 0.0112

Sequence: RRIRNRPPRLPRPRPRPRFHPRP
- shrunken log2 fold change: 0.0377

Sequence: RRIRFRPPRLPRPRPRPKMGPRP
- shrunken log2 fold change: -0.122

Sequence: RRIRLRPPRLPRPRPRPQDHPRP
- shrunken log2 fold change: -0.203

Sequence: RRIRDRPPRLPRPRPRPWKCPRP
- shrunken log2 fold change: 0.118

Sequence: RRIRGRPPRLPRPRPRPKCIPRP
- shrunken log2 fold change: 0.0819

Sequence: RRIRARPPRLPRPRPRPSCIPRP
- shrunken log2 fold change: -0.131

Sequence: RRIRDRPPRLPRPRPRPCAGPRP
- shrunken log2 fold change: 0.0969

Sequence: RRIRYRPPRLPRPRPRPQKKPRP
- shrunken log2 fold change: 0.0261

Sequence: RRIRCRPPRLPRPRPRPVTMPRP
- shrunken log2 fold change: -0.49

Sequence: RRIRGRPPRLPRPRPRPNFWPRP
- shrunken log2 fold change: 0.544

Sequence: RRIRGRPPRLPRPRPRPLMQPRP
- shrunken log2 fold change: 0.605

Sequence: RRIRQRPPRLPRPRPRPEAYPRP
- shrunken log2 fold change: 0.0335

Sequence: RRIRCRPPRLPRPRPRPFQSPRP
- shrunken log2 fold change: -0.0129

Sequence: RRIRSRPPRLPRPRPRPMGMPRP
- shrunken log2 fold change: -0.366

Sequence: RRIRSRPPRLPRPRPRPDRDPRP
- shrunken log2 fold change: -0.0344

Sequence: RRIRHRPPRLPRPRPRPWWVPRP
- shrunken log2 fold change: -0.136

Sequence: RRIRYRPPRLPRPRPRPYHGPRP
- shrunken log2 fold change: -0.139

Sequence: RRIRRRPPRLPRPRPRPDTEPRP
- shrunken log2 fold change: 0.0209

Sequence: RRIRNRPPRLPRPRPRPCVFPRP
- shrunken log2 fold change: -0.162

Sequence: RRIRERPPRLPRPRPRPICAPRP
- shrunken log2 fold change: 0.0742

Sequence: RRIRQRPPRLPRPRPRPRKKPRP
- shrunken log2 fold change: -0.0181

Sequence: RRIRWRPPRLPRPRPRPLSYPRP
- shrunken log2 fold change: -0.243

Sequence: RRIRTRPPRLPRPRPRPCLWPRP
- shrunken log2 fold change: -0.0838

Sequence: RRIRERPPRLPRPRPRPRDEPRP
- shrunken log2 fold change: 0.307

Sequence: RRIRFRPPRLPRPRPRPMIMPRP
- shrunken log2 fold change: 0.234

Sequence: RRIRTRPPRLPRPRPRPHTVPRP
- shrunken log2 fold change: -0.244

Sequence: RRIRKRPPRLPRPRPRPGCGPRP
- shrunken log2 fold change: 0.761

Sequence: RRIRSRPPRLPRPRPRPPLWPRP
- shrunken log2 fold change: 0.704

Sequence: RRIRRRPPRLPRPRPRPDRMPRP
- shrunken log2 fold change: -0.00208

Sequence: RRIRWRPPRLPRPRPRPRPFPRP
- shrunken log2 fold change: 0.56

Sequence: RRIRMRPPRLPRPRPRPPWMPRP
- shrunken log2 fold change: 0.537

Sequence: RRIRQRPPRLPRPRPRPLCEPRP
- shrunken log2 fold change: -0.0868

Sequence: RRIRFRPPRLPRPRPRPVERPRP
- shrunken log2 fold change: 0.0308

Sequence: RRIRPRPPRLPRPRPRPKPLPRP
- shrunken log2 fold change: 0.567

Sequence: RRIRMRPPRLPRPRPRPNECPRP
- shrunken log2 fold change: 0.175

Sequence: RRIRSRPPRLPRPRPRPFFAPRP
- shrunken log2 fold change: 0.205

Sequence: RRIRVRPPRLPRPRPRPPIPPRP
- shrunken log2 fold change: 0.242

Sequence: RRIRERPPRLPRPRPRPQWKPRP
- shrunken log2 fold change: -0.0957

Sequence: RRIRQRPPRLPRPRPRPFSLPRP
- shrunken log2 fold change: 0.14

Sequence: RRIRARPPRLPRPRPRPHQKPRP
- shrunken log2 fold change: -0.0267

Sequence: RRIRRRPPRLPRPRPRPTPYPRP
- shrunken log2 fold change: 0.545

Sequence: RRIRDRPPRLPRPRPRPVSRPRP
- shrunken log2 fold change: 0.218

Sequence: RRIRKRPPRLPRPRPRPVGSPRP
- shrunken log2 fold change: 0.178

Sequence: RRIRTRPPRLPRPRPRPECPPRP
- shrunken log2 fold change: 0.151

Sequence: RRIRNRPPRLPRPRPRPQNPPRP
- shrunken log2 fold change: -0.117

Sequence: RRIRGRPPRLPRPRPRPLLQPRP
- shrunken log2 fold change: 0.486

Sequence: RRIRPRPPRLPRPRPRPKKGPRP
- shrunken log2 fold change: -0.0676

Sequence: RRIRERPPRLPRPRPRPPLDPRP
- shrunken log2 fold change: 0.0357

Sequence: RRIRLRPPRLPRPRPRPSRWPRP
- shrunken log2 fold change: -0.279

Sequence: RRIRIRPPRLPRPRPRPNGYPRP
- shrunken log2 fold change: -0.0764

Sequence: RRIRYRPPRLPRPRPRPCFSPRP
- shrunken log2 fold change: -0.594

Sequence: RRIRFRPPRLPRPRPRPPAWPRP
- shrunken log2 fold change: 0.354

Sequence: RRIRGRPPRLPRPRPRPWDEPRP
- shrunken log2 fold change: 0.0077

Sequence: RRIRQRPPRLPRPRPRPIIMPRP
- shrunken log2 fold change: -0.25

Sequence: RRIRKRPPRLPRPRPRPLHGPRP
- shrunken log2 fold change: -0.0122

Sequence: RRIRKRPPRLPRPRPRPYHCPRP
- shrunken log2 fold change: -0.0129

Sequence: RRIRYRPPRLPRPRPRPLVTPRP
- shrunken log2 fold change: -0.616

Sequence: RRIRCRPPRLPRPRPRPQKMPRP
- shrunken log2 fold change: -0.0362

Sequence: RRIRDRPPRLPRPRPRPGYWPRP
- shrunken log2 fold change: 0.242

Sequence: RRIRERPPRLPRPRPRPQMLPRP
- shrunken log2 fold change: -0.0206

Sequence: RRIRHRPPRLPRPRPRPGAFPRP
- shrunken log2 fold change: 0.175

Sequence: RRIRFRPPRLPRPRPRPSIGPRP
- shrunken log2 fold change: -0.139

Sequence: RRIRLRPPRLPRPRPRPWGHPRP
- shrunken log2 fold change: 0.105

Sequence: RRIRGRPPRLPRPRPRPTYYPRP
- shrunken log2 fold change: 0.0798

Sequence: RRIRERPPRLPRPRPRPDDDPRP
- shrunken log2 fold change: 0.00371

Sequence: RRIRERPPRLPRPRPRPNFRPRP
- shrunken log2 fold change: -0.479

Sequence: RRIRNRPPRLPRPRPRPWPWPRP
- shrunken log2 fold change: 0.0162

Sequence: RRIRRRPPRLPRPRPRPVDTPRP
- shrunken log2 fold change: 0.0438

Sequence: RRIRKRPPRLPRPRPRPHIGPRP
- shrunken log2 fold change: -0.0664

Sequence: RRIRERPPRLPRPRPRPWFIPRP
- shrunken log2 fold change: -0.00655

Sequence: RRIRHRPPRLPRPRPRPHTTPRP
- shrunken log2 fold change: -0.491

Sequence: RRIRPRPPRLPRPRPRPRDVPRP
- shrunken log2 fold change: 0.0755

Sequence: RRIRHRPPRLPRPRPRPIENPRP
- shrunken log2 fold change: -0.143

Sequence: RRIRLRPPRLPRPRPRPPSEPRP
- shrunken log2 fold change: 0.321

Sequence: RRIRFRPPRLPRPRPRPCTCPRP
- shrunken log2 fold change: -0.187

Sequence: RRIRWRPPRLPRPRPRPYCMPRP
- shrunken log2 fold change: -0.401

Sequence: RRIRMRPPRLPRPRPRPLTHPRP
- shrunken log2 fold change: 0.0406

Sequence: RRIRKRPPRLPRPRPRPQLYPRP
- shrunken log2 fold change: 0.0948

Sequence: RRIRWRPPRLPRPRPRPQSHPRP
- shrunken log2 fold change: 0.105

Sequence: RRIRLRPPRLPRPRPRPMYSPRP
- shrunken log2 fold change: -0.364

Sequence: RRIRERPPRLPRPRPRPQENPRP
- shrunken log2 fold change: -0.164

Sequence: RRIRKRPPRLPRPRPRPISVPRP
- shrunken log2 fold change: -0.056

Sequence: RRIRRRPPRLPRPRPRPNSVPRP
- shrunken log2 fold change: -0.0617

Sequence: RRIRPRPPRLPRPRPRPHHWPRP
- shrunken log2 fold change: -0.103

Sequence: RRIRQRPPRLPRPRPRPCFWPRP
- shrunken log2 fold change: 0.14

Sequence: RRIRRRPPRLPRPRPRPENGPRP
- shrunken log2 fold change: 0.401

Sequence: RRIRHRPPRLPRPRPRPQKNPRP
- shrunken log2 fold change: -0.3

Sequence: RRIRHRPPRLPRPRPRPMIRPRP
- shrunken log2 fold change: -0.173

Sequence: RRIRARPPRLPRPRPRPDIFPRP
- shrunken log2 fold change: 0.148

Sequence: RRIRIRPPRLPRPRPRPAHVPRP
- shrunken log2 fold change: -0.0796

Sequence: RRIRSRPPRLPRPRPRPPWIPRP
- shrunken log2 fold change: -0.0981

Sequence: RRIRHRPPRLPRPRPRPQDRPRP
- shrunken log2 fold change: -0.111

Sequence: RRIRIRPPRLPRPRPRPCAPPRP
- shrunken log2 fold change: -0.506

Sequence: RRIRIRPPRLPRPRPRPTWWPRP
- shrunken log2 fold change: 0.0347

Sequence: RRIRVRPPRLPRPRPRPWYCPRP
- shrunken log2 fold change: -0.462

Sequence: RRIRYRPPRLPRPRPRPKPFPRP
- shrunken log2 fold change: 0.0506

Sequence: RRIRFRPPRLPRPRPRPYMEPRP
- shrunken log2 fold change: -0.0116

Sequence: RRIRIRPPRLPRPRPRPYLYPRP
- shrunken log2 fold change: -0.544

Sequence: RRIRTRPPRLPRPRPRPGCVPRP
- shrunken log2 fold change: 0.0396

Sequence: RRIRMRPPRLPRPRPRPLACPRP
- shrunken log2 fold change: 0.244

Sequence: RRIRIRPPRLPRPRPRPWSHPRP
- shrunken log2 fold change: -0.416

Sequence: RRIRVRPPRLPRPRPRPRLRPRP
- shrunken log2 fold change: 0.311

Sequence: RRIRHRPPRLPRPRPRPVHTPRP
- shrunken log2 fold change: -0.292

Sequence: RRIRDRPPRLPRPRPRPKGWPRP
- shrunken log2 fold change: 0.589

Sequence: RRIRGRPPRLPRPRPRPKNAPRP
- shrunken log2 fold change: 1.91

Sequence: RRIRRRPPRLPRPRPRPHQWPRP
- shrunken log2 fold change: 0.144

Sequence: RRIRNRPPRLPRPRPRPLHTPRP
- shrunken log2 fold change: 0.0669

Source: the supplement of paper PMC9112550, “Optimization of the antimicrobial peptide Bac7 by deep mutational scanning” (BMC Biology, 2022)
